Consider four molecules from article PMC3820802, “Activin Signaling Targeted by Insulin/dFOXO Regulates Aging and Muscle Proteostasis in Drosophila”.

The target in data set [1] is T1, Smox MH1 DNA-binding domain (UniProt O96660 1-140).
T1 sequence: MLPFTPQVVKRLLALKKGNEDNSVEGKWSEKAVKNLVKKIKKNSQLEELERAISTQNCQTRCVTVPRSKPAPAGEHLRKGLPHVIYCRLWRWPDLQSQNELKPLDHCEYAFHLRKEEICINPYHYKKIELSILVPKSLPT
Nature of the data set: competition; EMSA, cold competitor vs labeled N1; did not compete; 10 mM Tris-HCl pH 7.5, 150 mM KCl, 5 mM MgCl2, 10 ng/uL poly(dI-dC), ~50 ng probe, 20 ug protein in 10 uL, room temperature 20 min; 0.8% agarose, 0.5x TBE. As to conditions: protein: recombinant; tags: His6-HaloTag (pFN29K vector; purified with HaloTag kit, tag retention: called Halo-tagged in legend); (only one strand seen in the material).

In data set [2] the target is T1, Smox MH1 DNA-binding domain. Nature of the data set: EMSA; blocked by unlabeled wild-type probe; 10 mM Tris-HCl pH 7.5, 150 mM KCl, 5 mM MgCl2, 10 ng/uL poly(dI-dC), ~50 ng probe, 20 ug protein in 10 uL, room temperature 20 min; 0.8% agarose, 0.5x TBE. As to conditions: protein: recombinant; tags: His6-HaloTag (pFN29K vector; purified with HaloTag kit, tag retention: called Halo-tagged in legend); (only one strand seen in the material).

For data set [3] the target is unchanged. Briefly: EMSA; 10 mM Tris-HCl pH 7.5, 150 mM KCl, 5 mM MgCl2, 10 ng/uL poly(dI-dC), ~50 ng probe, 20 ug protein in 10 uL, room temperature 20 min; 0.8% agarose, 0.5x TBE. Particulars: protein: recombinant; tags: His6-HaloTag (pFN29K vector; purified with HaloTag kit, tag retention: called Halo-tagged in legend); label: 3' biotin; (only one strand seen in the material).

B1: Atg8a-Mut3 (dsDNA)
DNA 1: CATATTAGATAGATACCATT
DNA 2: AATGGTATCTATCTAATATG
With B1, in data set [1], the binding result is “no binding”.

B2: Atg8a-Mut2 (dsDNA)
DNA 1: CATATTAGCTACATACCATT
DNA 2: AATGGTATGTAGCTAATATG
Take B2: the binding result in data set [1] is “no binding”.

B3: Atg8a probe (dsDNA)
DNA 1: CATATTAGACAGACACCATT
DNA 2: AATGGTGTCTGTCTAATATG
Regarding B3, the binding result in data set [2] is “binds”.

B4: SBE (vertebrate Smad binding element) (dsDNA)
DNA 1: GTATGTCTAGACTGAA
DNA 2: TTCAGTCTAGACATAC
With B4, in data set [3], the binding result was “binds”.
